Our source for the koff, Kd and kon values is US20220380463A1 (Adimab, published 2022).

Substitutions are numbered along the chain they refer to.

First the molecules themselves.
B1: SAD10320_P01_A03 (ADI-57353) (antibody, V domains shown)
VH: QVQLVQSGAEVKKPGASVKVSCKASGFNIKDYYMHWVRQAPGQRLEWMGWIDLENANTIYDAKFQGRVTITRDTSASTAYMELSSLRSEDTAVYYCARDHRGRYFYDVWGQGTLVTVSS
VL: DIVMTQSPDSLAVSLGERATINCKSSQSLLNARTGKNYLAWYQQKPGQPPKLLIYWASTRESGVPDRFSGSGSGTDFTLTISSLQAEDVAVYYCKQSSHRRTFGGGTKVEIK
notes: IgG; also called Ab60
B2: LAD9953_P01_H01 (ADI-57437) (antibody, V domains shown)
VH: B1 VH with H100A, R101Y
VL: B1 VL with N31H, G35H, S98Y, H99S
notes: IgG; also called Ab167
B3: LAD9954_P01_B02 (ADI-57438) (antibody, V domains shown)
VH: B1 VH with H100A, R101Y
VL: B1 VL with N31H, K36H, S98Y, H99S
notes: IgG; also called Ab168
B4: SAD10320_P02_F06 (ADI-57370) (antibody, V domains shown)
VH: B1 VH with E46A, H100A, R101Y, Y104F, F105H
VL: B1 VL with T34P, S98Y, H99S
notes: IgG; also called Ab87
B5: LAD9959_P01_E04 (ADI-57441) (antibody, V domains shown)
VH: B1 VH with H100A, R101Y
VL: B1 VL with G35H, K36H, S98Y, H99S
notes: IgG; also called Ab172
B6: LAD9955_P01_G02 (ADI-57439) (antibody, V domains shown)
VH: B1 VH with H100A, R101Y
VL: B1 VL with N31H, Y38H, S98Y, H99S
notes: IgG; also called Ab170
B7: LAD9964_P01_C07 (ADI-57444) (antibody, V domains shown)
VH: B1 VH with H100A, R101Y
VL: B1 VL with G35H, S98Y, H99S
B8: SAD10320_P02_G06 (ADI-57371) (antibody, V domains shown)
VH: B1 VH with E46D, H100A, R101Y, Y104H
VL: B1 VL with G35R, K36T, S98Y, H99S
notes: IgG; also called Ab88
B9: SAD10320_P01_B03 (ADI-57354) (antibody, V domains shown)
VH: B1 VH with E89D, H100Q, R101H
VL: B1 VL with S98Y, H99S
notes: IgG; also called Ab61

The target of one assay is T1, Cynomolgus CD3εδ Fc heterodimer (Cy CD3ε Fc / CD3δ Fc-HIS) (cynomolgus, UniProt Q95LI8 22-100).
T1 chain 1: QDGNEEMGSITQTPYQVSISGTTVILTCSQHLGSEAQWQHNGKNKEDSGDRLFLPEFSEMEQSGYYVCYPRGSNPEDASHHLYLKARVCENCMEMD
T1 chain 2: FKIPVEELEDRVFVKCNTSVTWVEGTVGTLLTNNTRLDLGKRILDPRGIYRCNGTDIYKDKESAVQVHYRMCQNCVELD
The assay can be described thus: BLI (Octet), IgG on AHC sensor, pH 6.0. For orientation: Biolayer interferometry detects binding as a change in optical thickness at a sensor tip.
B1 came in with an off-rate constant (koff) of 0.0271 s⁻¹.

As for B2, the off-rate constant (koff) was determined as 0.0176 s⁻¹.

Take B3: the off-rate (koff) worked out at 0.0303 s⁻¹. This koff is about 1.7-fold higher than that of the molecule before.

B4 yielded a koff of 0.017 s⁻¹.

As to B5, the koff amounted to 0.00174 s⁻¹.

In turn, B6 gave an off-rate (koff) of 0.0282 s⁻¹. This koff is about 16-fold higher than that of the molecule before.

B7 had an off-rate constant (koff) of 0.000637 s⁻¹. This koff lies about 44-fold lower than the previous one.

Molecule B8 had a koff of 0.00387 s⁻¹.

In turn, B9 registered a koff of 0.0204 s⁻¹.

A further assay has as its target T1, Cynomolgus CD3εδ Fc heterodimer (Cy …). The assay can be described thus: BLI (Octet), IgG on AHC sensor, pH 7.4.
B1 yielded a Kd of 78.4 nM, a dissociation rate constant (koff) of 0.0174 s⁻¹ and a kon of 222000 M⁻¹ s⁻¹.

Take B2: the affinity, expressed as Kd, was 86.7 nM; the koff came to 0.0209 s⁻¹; the kon was found to be 242000 M⁻¹ s⁻¹.

The molecule B3 returned a dissociation constant Kd of 33.9 nM, a koff of 0.0107 s⁻¹ and an on-rate (kon) of 316000 M⁻¹ s⁻¹.

In turn, B4 came in with a dissociation constant Kd of 141 nM, a koff of 0.0166 s⁻¹ and a kon of 118000 M⁻¹ s⁻¹.

Turning to B5, binding was characterised by a dissociation constant (Kd) of 89.6 nM, the koff was found to be 0.0189 s⁻¹ and the kon stood at 210000 M⁻¹ s⁻¹.

For B6, the Kd was 127 nM, the koff worked out at 0.0187 s⁻¹ and the kon is 147000 M⁻¹ s⁻¹.

The molecule B7 displayed a Kd of 4.71 nM, a koff of 0.00146 s⁻¹ and a kon of 310000 M⁻¹ s⁻¹.

For B8, the Kd came out at 64.8 nM, the off-rate constant (koff) was 0.0219 s⁻¹ and the on-rate constant (kon) is 338000 M⁻¹ s⁻¹.

In the case of B9, binding was characterised by a dissociation constant (Kd) of 75.1 nM, the dissociation rate constant (koff) is 0.0159 s⁻¹ and the association rate constant (kon) is 212000 M⁻¹ s⁻¹.

By koff is commonly meant the first-order rate constant of dissociation. What is called Kd is the constant that tells how readily two partners part at equilibrium. Read a low Kd as a tighter complex. In general, kon refers to a measure of how fast the partners come together. A higher kon goes with fast association.
